Data published in PMC11731779, “Transferrin Disassociates TCR from CD3 Signaling Apparatus to Promote Metastasis” (Research, 2025).

Assays:
transferrin [1] = biological target: T1, transferrin (UniProt P02787 20-698); experiment: SPR; Biacore T200; transferrin amine-coupled to a CM5 chip at ~6,000 resonance units; analytes in PBST (0.02% Tween 20) at 20 μl/min; TCRα, TCRβ and human serum albumin at 1,000 nM; TCRα and TRAC at 125, 250, 500 and 1,000 nM; kinetic and steady-state fits; conditions: both partners purified
T1 construct: transferrin (serotransferrin); One molecule for the transferrin immobilised for SPR, added to cells (co-IP with intervention, FRET) and co-precipitated from human PBMC / T cells; Methods are in the supplement; also called Tf

transferrin [2] = biological target: T1, transferrin; experiment: not stated; DK8 binding to transferrin, 'binding response value' and KD (Fig. S9C and E); method not given

T1 sequence (P02787 20-698): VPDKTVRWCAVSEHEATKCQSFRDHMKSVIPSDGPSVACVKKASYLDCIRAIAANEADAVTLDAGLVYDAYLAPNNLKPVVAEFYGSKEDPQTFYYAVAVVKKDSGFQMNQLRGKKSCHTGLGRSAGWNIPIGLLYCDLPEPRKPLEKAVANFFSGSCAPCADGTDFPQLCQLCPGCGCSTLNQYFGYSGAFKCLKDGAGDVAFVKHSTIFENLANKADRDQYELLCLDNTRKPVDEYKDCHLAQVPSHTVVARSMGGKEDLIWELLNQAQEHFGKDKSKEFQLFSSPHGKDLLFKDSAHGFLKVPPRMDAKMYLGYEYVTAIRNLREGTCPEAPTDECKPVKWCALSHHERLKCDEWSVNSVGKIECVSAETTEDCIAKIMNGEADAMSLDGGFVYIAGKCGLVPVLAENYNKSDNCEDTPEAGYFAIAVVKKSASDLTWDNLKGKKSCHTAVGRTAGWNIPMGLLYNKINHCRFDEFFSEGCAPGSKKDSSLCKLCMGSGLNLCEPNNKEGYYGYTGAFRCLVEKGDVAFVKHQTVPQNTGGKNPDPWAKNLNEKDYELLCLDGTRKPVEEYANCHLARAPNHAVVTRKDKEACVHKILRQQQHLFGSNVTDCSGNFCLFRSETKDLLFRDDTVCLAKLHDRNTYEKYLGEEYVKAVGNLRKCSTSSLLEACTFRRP

Binder	Kd (transferrin [1])	Kd (transferrin [2])
T cell receptor α constant (TRAC) (domain or fragment, human, UniProt P01848 1-115, looked up, T cell receptor alpha chain constant region (TRAC), human, UniProt P01848; TRAC protein used as analyte in SPR; construct and host may stand in the Supplementary Methods; also called constant domain (CD) of TCRα; Cα) IQNPDPAVYQLRDSKSSDKSVCLFTDFDSQTNVSQSKDSDVYITDKTVLDMRSMDFKSNSAVAWSNKSDFACANAFNNSIIPEDTFFPSPESSCDVKLVEKSFETDTNLNFQNLS	10.9 nM	
DMRSMDFK (amino acids 50 to 57 of TRAC (UniProt P01848); also called interfering peptide DK8; designed peptide (DK8)) [DK8]		166 nM
